Tests used:
[1] = tested on: rat mu opioid receptor; test: CRE-Luc luciferase reporter assay with forskolin stimulation; format: cell-based; settings: CRE-Luc luciferase reporter, FIG. 4
Excerpt: (§1) The response element employed in this assay was the cAMP-response element (CRE), which is sensitive to Gαi mediated reductions in intracellular levels of cAMP. Signaling through the rat mu opioid receptor via Gαi inhibits adenylate cyclase, causing a decrease in intracellular cellular cAMP. Therefore, an increase in rat mu opioid receptor signaling induces a decrease in CRE mediated reporter activity.
(§2) Mutation induced Gαi-mediated decreases in intracellular cAMP were, prior to the present invention, more often measured by 1) stimulating cells with forskolin, which causes receptor-independent activation of adenylate cyclase and generates an intracellular pool of cAMP; 2) stimulating the cells with ligand; and 3) measuring the ligand-induced, receptor-dependent Gαi-mediated decrease in the intracellular cAMP pool (e.g., using a radioimmunoassay (e.g., New England Nuclear, Boston, Mass.)). […] Specifically, cells transfected with a CRE-Luc reporter construct (Stratagene, La Jolla, Calif.) and an expression vector encoding either a wild-type or a mutant rat mu opioid receptor were stimulated with 0.5 μM or 2 μM forskolin to increase the intracellular pool of cAMP. The basal (and ligand-induced) level of receptor activity was then measured using a standard luciferase assay (see FIG. 4). Coexpression of the receptor of interest with a luciferase reporter gene construct allows one to measure light emission as a readout for basal signaling.
(§3) This decrease in activity indicates an increase in the basal level activity of the mutant rat mu opioid receptor, because activation of the rat mu opioid receptor induces a decrease in CRE-mediated reporter activity (FIG. 4, compare 0.5 μM wild-type vs. 0.5 μM mutant and 2 μM wild-type vs. 2 μM mutant).

[2] = target: T1, MC-4 receptor (Homo sapiens, UniProt P32245, D146M); test: SMS-Luc luciferase reporter assay in HEK293 cells; format: cell-based
T1 construct: expressed in transfected cells; host or cells: HEK293
Protocol: Briefly, HEK293 cells were cotransfected, as described above, with an expression vector encoding either the wild-type MC-4 receptor or the Asp146Met mutant MC-4 receptor and the reporter construct, SMS-Luc. As a negative control, cells were transfected with SMS-Luc and pcDNA1. Basal and ligand (αMHS) induced activity of the negative control, the wild-type MC-4 receptor, and the Asp146Met mutant MC-4 receptor were measured using the luciferase assay described above.

[3] = target: T1, MC-4 receptor; test: Basal level cAMP production; format: cell-based; settings: FIG. 2
Protocol: As but one example, ligand-dependent activation of the melanocortin-4 (MC-4) receptor is assayed by measuring an increase in cAMP production (Huszar et al., Cell 88:131-141, (1997)).

[4] = target: T2, CCK-BR (Homo sapiens, UniProt P32239, L325E); test: Luciferase reporter assay (SMS-Luc, SRE-Luc) in HEK293 cells; format: cell-based
T2 construct: expressed in transfected cells; host or cells: HEK293
T2 sequence (P32239 1-447 L325E): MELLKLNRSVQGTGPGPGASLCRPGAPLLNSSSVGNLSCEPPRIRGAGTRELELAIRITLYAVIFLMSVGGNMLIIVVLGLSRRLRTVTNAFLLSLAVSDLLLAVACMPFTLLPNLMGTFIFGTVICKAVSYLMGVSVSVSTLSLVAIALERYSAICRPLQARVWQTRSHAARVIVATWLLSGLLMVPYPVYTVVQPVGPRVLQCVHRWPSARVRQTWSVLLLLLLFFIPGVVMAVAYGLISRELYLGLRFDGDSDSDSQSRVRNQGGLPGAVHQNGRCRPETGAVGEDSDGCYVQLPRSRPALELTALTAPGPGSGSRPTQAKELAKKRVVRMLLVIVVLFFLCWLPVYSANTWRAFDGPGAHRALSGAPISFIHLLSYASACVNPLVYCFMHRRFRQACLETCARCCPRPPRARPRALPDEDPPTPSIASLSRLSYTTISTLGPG
Excerpt: as §1
HEK293 cells were transfected (as described above) with SMS-Luc and an expression vector encoding any one of pcDNA1, wild-type CCK-BR, or Leu325Glu CCK-BR.

[5] = tested on: CCK-BR; settings: COS-7 cells, absence of agonist; cited from earlier work
[6] = target: T3, rat mu opioid receptor (Rattus norvegicus, UniProt P33535, N150A); test: SRE-Luc/Gq5i luciferase reporter assay in HEK293 cells; format: cell-based; settings: see Example 1
T3 construct: expressed in transfected cells; host or cells: HEK293 (stated for the SRE-Luc/Gq5i assay); receptor gene in pcDNA1
Excerpt: (§4) A positive assay for Gαi coupling (i.e., one that yields an increase in luciferase activity upon receptor activation, instead of a negative assay, one that yields a decrease in luciferase activity upon receptor activation), provides a detectable output signal and less interassay variation. It was hypothesized that Gαi coupling could be detected by altering the signaling pathway generated by Gαi coupled receptors. A chimeric G protein (Gqi5, Broach and Thorner, Nature 384 (Suppl.): 14-16 (1996)) that contains the entire Gαq protein having five C-terminal amino acids from Gαi attached to the C-terminus of Gαq has been generated. This chimeric G protein is recognized as Gαi by Gαi coupled receptors, but switches the receptor induced signaling from Gαi to Gαq. This allows Gαi receptor coupling to be detected using a positive assay by use of the Gαq responsive SMS-Luc or SRE-Luc construct (Stratagene, La Jolla, Calif.). SMS and SRE preferably respond to Gαq mediated inositol and calcium production. Moreover, detection can be carried out in the absence of forskolin pre-stimulation of cells.
(§5) Reagents & Solutions: The cell culture media used in the assays described below was Gibco BRL #12100-046. This media was made according to manufacturer's recipe, pH adjusted to 7.2, filtered (0.22 micron pore), and supplemented with 1% Pen/Strep (Gibco #15140-122; 100% penicillin G 10,000 units/ml, and streptomycin 10,000 μg/ml) and 10% fetal bovine serum. Cell culture media lacking 10% fetal bovine serum was also generated. DNA used in the transfection experiments was purified and quantitated by measuring the absorbance at OD260. A LucLite Luciferase Assay Kit (Packard) was used to quantitate luciferase activity. Transfections were carried out using LipofectAMINE Reagent (Gibco #18324-012).
(§6) The rat mu opioid receptor is a Gαi coupled receptor. Therefore we chose to use the Gq5i reporter system, described in detail above (Broach and Thorner, supra), which switches the signaling pathway from Gαi to Gαq for reliable positive readout. HEK293 cells were transfected with the reporter construct SRE-Luc, an expression vector containing nucleic acid encoding Gq5i (Broach and Thorner, supra), and an expression vector containing nucleic acid encoding either the wild-type or the Asn150Ala mutant rat mu opioid receptor. Basal and ligand-stimulated luciferase activity was measured. The ligand used in this assay was [D—Ala^2—MePhe^4, Gly-ol^5]enkephalin] (DAMGO). As a negative control, HEK293 cells were transfected with pcDNA1 (empty vector DNA), SRE-Luc, and the expression vector containing nucleic acid encoding Gq5i (Broach and Thorner, supra).
(§7) The luciferase assay was carried out as follows. On day 1, HEK293 cells in a T75 flask were washed with 15 ml serum-free media (or PBS), trypsinized with 5 ml 0.05% trypsin-EDTA (Gibco #25300-062), incubated at 37° C. for 3 minutes at which time 6-7 ml complete HEK293 media (Gibco #12100-046) and 10% Fetal Bovine Serum (Intergen #1050-90) were added. Thereafter, cells were collected in 50 ml centrifuge tubes, pelleted at 800-900 rpm (RCF˜275), and resuspend in 20 ml complete media. The cells were counted using a haemocytometer and diluted to 85,000 cells/ml in complete media. Using a repeat pipettor or cell plater, 100 μl of cells were added to each well of a Primaria 96-well plate (Falcon #353872). Cells were then incubated at 37° C., 5% CO2 until use at 48 hours.
(§8) On day 3, cells were transfected using LipofectAMINE™ according to the manufacturer's protocol (Gibco #18324-012, Rockville, Md.).
(§9) On day 4, cells were stimulated as follows. Ligands for the receptor, either DAMGO or a non-peptide ligand (e.g., naloxone or naltrexone), were diluted to a desired concentration in serum-free media containing 0.15 mM PMSF (or other protease inhibitor(s)). […]

[7] = tested on: rat mu opioid receptor; test: as above; format: cell-based; settings: SRE + Gq5i
Excerpt: as §4, §5, §6, §7, §8, §9

[8] = target: T3, rat mu opioid receptor; test: CRE-Luc luciferase reporter assay with forskolin stimulation; format: cell-based; settings: CRE-Luc, 0.5 μM or 2 μM forskolin
Excerpt: as §1, §2, §3

[9] = tested on: mu opioid receptor; test: Luciferase activity on DAMGO titration (FIG. 15); format: cell-based, rat; settings: DAMGO titrated onto cells
Protocol: Ligand (Damgo) was titrated onto the cells expressing either the mutant or the wild-type mu opioid receptor and the luciferase activity was measured to assess the sensitivity of the receptor to ligand stimulation.
It is important to note that the mu opioid receptor of the invention is also hypersensitive.

T1 sequence (P32245 whole entry D146M): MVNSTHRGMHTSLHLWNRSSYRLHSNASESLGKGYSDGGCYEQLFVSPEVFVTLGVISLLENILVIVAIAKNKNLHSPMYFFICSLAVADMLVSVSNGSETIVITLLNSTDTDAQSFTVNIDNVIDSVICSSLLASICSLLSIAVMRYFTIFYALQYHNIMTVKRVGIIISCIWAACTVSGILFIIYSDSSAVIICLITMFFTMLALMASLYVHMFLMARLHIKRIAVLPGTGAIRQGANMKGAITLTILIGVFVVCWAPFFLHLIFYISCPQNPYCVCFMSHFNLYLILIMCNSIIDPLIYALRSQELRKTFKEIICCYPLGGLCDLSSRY

For C[C@@H](NC(=O)[C@@H](N)Cc1ccc(O)cc1)C(=O)NCC(=O)N(C)[C@@H](Cc1ccccc1)C(=O)NCCO [DAMGO, [D—Ala^2—MePhe^4, Gly-ol^5]enkephalin], reference compound], the “effect of agonist stimulation of the receptor on forskolin induced activity” value [1] was “decrease in forskolin induced activity”.

For “Asp146Met mutant MC-4 receptor: melanocortin-4 receptor with Asp at position 146 (DRY motif) replaced by Met”, the “basal level activity vs wild-type” value [2] was “higher basal level activity than its wild-type counterpart” and the “constitutive activity by basal level cAMP production” value [3] was “constitutive activity”.

B1: Leu325Glu CCK-BR mutant: human CCK-BR with point mutation Leu325Glu in the third intracellular loop (protein, UniProt P32239 1-447, looked up, variant L325E)
Gastrin/cholecystokinin type …: T2 sequence (P32239 1-447 L325E)
For B1, the “basal activity detected by the SMS and SRE response elements” value ([4]; SMS and SRE response elements, Gαq coupled, FIG. 3) is given as “increase in basal activity”, the “basal level activity vs wild-type CCK-BR” value ([4]; SMS-Luc, HEK293 cells) is given as “increased basal level activity” and the “agonist-independent constitutive activity (inositol phosphate production)” value [5] is given as “triggers constitutive production of inositol phosphates to levels exceeding wild-type CCK-BR”.

B2: Asn150Ala rat mu opioid receptor: rat mu opioid receptor (SEQ ID NO: 1) with Asn to Ala point mutation at position 150, expressed from pcDNA1 (protein)
chain: MDSSTGPGNTSDCSDPLAQASCSPAPGSWLNLSHVDGNQSDPCGLNRTGLGGNDSLCPQTGSPSMVTAITIMALYSIVCVVGLFGNFLVMYVIVRYTKMKTATNIYIFNLALADALATSTLPFQSVNYLMGTWPFGTILCKIVISIDYYAMFTSIFTLCTMSVDRYIAVCHPVKALDFRTPRNAKIVNVCNWILSSAIGLPVMFMATTKYRQGSIDCTLTFSHPTWYWENLLKICVFIFAFIMPVLIITVCYGLMILRLKSVRMLSGSKEKDRNLRRITRMVLVVVAVFIVCWTPIHIYVIIKALITIPETTFQTVSWHFCIALGYTNSCLNPVLYAFLDENFKRCFREFCIPTSSTIEQQNSTRVRQNTREHPSTANTVDRTNHQLENLEAETAPLP
With B2 the “basal activity relative to the maximal level of ligand-stimulated second messenger signaling” value [6] was “exceeded 50%”, the “Average Ligand Stimulated Activity (Light Emission)” value ([7]; HEK293 cells, ligand DAMGO) was 86,996 and the “Average Basal Activity (Light Emission)” value ([7]; HEK293 cells, no ligand) was “*56,498”. For the same molecule, the “stimulation of basal level activity” value ([7]; mutant vs wild-type receptor, listed as Asn150Ala mutant mu opioid receptor) was “approximately 6.5 fold”, the “basal activity (forskolin-induced, no receptor stimulation) vs wild-type receptor” value [8] was “reduction in basal activity” and the “level of constitutive activity relative to ligand-stimulated activity of the wild-type receptor” value [8] was 50%. The “sensitivity of the receptor to ligand stimulation vs wild-type” value ([9]; listed as Asn150Ala rat mutant mu opioid receptor) was “hypersensitivity” and the “sensitivity of the receptor to ligand stimulation vs wild-type” value ([9]; listed as mutant receptor) was “responsive to a lower concentration of ligand than the wild-type receptor”.

Source: patent US20020147170A1 (priority 2000, published 2002)
